Values belong to the molecule of their own block, whether it stands above or below them.
Experiments:
[1] = molecular target: T1, C-myc-CCR4-RLuc8 (human) (UniProt P51679)
T1 sequence: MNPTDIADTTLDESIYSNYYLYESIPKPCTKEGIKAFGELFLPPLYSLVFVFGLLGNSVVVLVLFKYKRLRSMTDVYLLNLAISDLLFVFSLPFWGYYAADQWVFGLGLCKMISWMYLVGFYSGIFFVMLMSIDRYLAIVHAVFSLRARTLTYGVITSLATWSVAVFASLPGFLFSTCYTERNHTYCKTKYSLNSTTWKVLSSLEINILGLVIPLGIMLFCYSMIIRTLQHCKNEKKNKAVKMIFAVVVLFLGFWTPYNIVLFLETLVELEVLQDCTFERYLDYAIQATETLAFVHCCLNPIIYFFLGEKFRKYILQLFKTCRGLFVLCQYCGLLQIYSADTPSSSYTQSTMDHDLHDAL

[2] = molecular target: C-myc-CCR7-RLuc8 (human) (UniProt P32248)
UniProt P32248, sequence (P32248 25-378): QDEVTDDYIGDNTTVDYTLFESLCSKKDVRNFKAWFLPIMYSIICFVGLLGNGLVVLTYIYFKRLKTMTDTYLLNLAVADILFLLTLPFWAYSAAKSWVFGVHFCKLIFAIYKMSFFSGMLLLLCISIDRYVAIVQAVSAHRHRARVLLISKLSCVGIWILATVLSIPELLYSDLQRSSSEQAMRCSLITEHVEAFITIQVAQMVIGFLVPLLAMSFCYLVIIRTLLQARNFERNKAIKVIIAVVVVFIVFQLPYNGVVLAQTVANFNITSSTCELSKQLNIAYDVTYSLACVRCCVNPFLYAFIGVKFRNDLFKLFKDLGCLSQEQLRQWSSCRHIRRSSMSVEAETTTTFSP

[3] = molecular target: C-myc-CCR7-RLuc8 (human) (UniProt P32248); conditions: scale: pEC50
[4] = molecular target: T2, C-myc-CCR10-RLuc8 (human) (UniProt P46092)
T2 sequence: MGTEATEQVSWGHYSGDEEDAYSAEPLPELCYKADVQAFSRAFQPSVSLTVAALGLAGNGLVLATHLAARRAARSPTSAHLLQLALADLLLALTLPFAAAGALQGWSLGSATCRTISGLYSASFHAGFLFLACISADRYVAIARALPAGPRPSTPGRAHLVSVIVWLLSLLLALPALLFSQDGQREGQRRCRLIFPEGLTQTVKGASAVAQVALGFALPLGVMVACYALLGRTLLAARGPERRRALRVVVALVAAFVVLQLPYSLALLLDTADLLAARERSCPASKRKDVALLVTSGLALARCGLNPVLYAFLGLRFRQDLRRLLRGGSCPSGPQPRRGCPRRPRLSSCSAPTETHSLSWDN

β-arrestin2 recruitment to CCR4 (BRET): Emax relative to CCL22 [1]: 28%
Molecule: CC chemokine ligand 17 (CCL17) (from UniProt Q92583 24-94)

G protein activation via CCR7: Emax relative to CCL19 [2]: 103%
cAMP inhibition via CCR7: Emax relative to CCL19 [2]: 99%
β-arrestin2 recruitment to CCR7 (BRET): pEC50 as printed in the text, assuming the same Emax value (differs from Table 1) [3]: 6.7
Molecule: CCL21 (from UniProt O00585 24-134) (ligand)

G protein activation via CCR10: maximum signal observed relative to the Emax of CCL27; curve not saturated [4]: 80%
NFAT Ca2+ reporter via CCR10: Emax relative to CCL27 [4]: 106%
cAMP inhibition via CCR10: maximum signal observed relative to the Emax of CCL27; curve not saturated [4]: 64%
β-arrestin2 recruitment to CCR10 (BRET): maximum signal observed relative to the Emax of CCL27; curve not saturated, potency ND [4]: 82%
B1: CCL28(4-108) (ligand)
chain: ILPIASSCCTEVSHHISRRLLERVNMCRIQRADGDCDLAAVILHVKRRRICVSPHNHTVKQWMKVQAAKKNGKGNVCHRKKHHGKRNSNRAHQGKHETYGHKTPY

From publication PMC8073111
